Assay results reported in publication PMC9354549, “SARS-CoV-2 Nucleocapsid Protein Has DNA-Melting and Strand-Annealing Activities With Different Properties From SARS-CoV-2 Nsp13”.

Columns and labels:
[1] = biological target: SARS-CoV-2 nonstructural protein 13 (CoV-2 Nsp13) (SARS-CoV-2, UniProt P0DTD1 5325-5925); test: fluorescence anisotropy; Fluorescence anisotropy, 50 mM Tris-HCl pH 7.0 with 300 mM NaCl ([…]) or 20 mM NaCl ([…]; temperature not stated; details: protein: recombinant; tags: 6xHis-SUMO, removed with SUMO protease; label: 3'-FAM (fluorescein); single strand, 43 nt
[2] = biological target: SARS-CoV-2 nucleocapsid protein (CoV-2 N) (SARS-CoV-2 (2019-nCoV), UniProt P0DTC9 1-419); test: fluorescence anisotropy; 300 mM NaCl; 5 nM DNA; Kd was fitted but its value is only in Figure 7A; Fluorescence anisotropy, 50 mM Tris-HCl pH 7.0 with 300 mM NaCl (N) or 20 mM NaCl (Nsp13); 5 min equilibration, second reading after 10 min; temperature not stated; details: protein: recombinant; chain copies: 2; label: 3'-FAM (fluorescein); single strand, 43 nt

B1: S43 (ssDNA)
DNA: CTGTAGGAATGTGAAATAAAAACGATGTTTTATTTACATTGTA
- binding result [1]: binds
- binding result [2]: binds
